Test results reported in patent US7132278B2, “PAS kinase” (Board of Regents, The University of Texas System, priority 2001, dated 2006).

Substrate: Nc1ncnc2c1ncn2[C@@H]1O[C@H](COP(=O)(O)OP(=O)(O)OP(=O)(O)O)[C@@H](O)[C@H]1O
Assay: PASK kinase activity (phosphorylation of AMARA peptide), ATP kinetics
Type: biochemical, human
Conditions: other: HTS kinase assay, AMARA peptide substrate, Tris-HCl pH 7.5, 10 mM MgCl2, room temperature
Experimental: Biochemical properties of the Pask enzyme. A recombinant baculovirus was engineered to overexpress human PASK enzyme in cultured insect cells. The enzyme was expressed as a fusion with a His6 tag at its amino terminus such that the recombinant polypeptide could be purified by Ni-affinity chromatography. Routine enzyme preparations were harvested from 0.8 liter of cultured Sf-9 cells. Cells were lysed by dounce homogenization in 50 mM Tris-HCl, pH 8.0, 100 mM NaCl, 0.04% β-mercaptoethanol (“lysis buffer”) and spun at 100,000×G for one hour to remove insoluble debris. Soluble material (˜50 ml) was then applied to a 3 ml bed volume of Ni-affinity resin. Following application and 50× column volume wash, bound material was eluted with storage buffer (50 mM HEPES, pH 7.4, 100 mM NaCl, 1 mM DTT, 1 mM EDTA) supplemented with 250 mM imidazole. Eluted material was sequentially subjected to Mono-Q, anion-exchange chromatography, and eluted with increasing NaCl concentration. Fractions were evaluated by SDS-PAGE to identify PASK enriched fractions, pooled and dialyzed against storage buffer supplemented with 10% glycerol. Typical enzyme preparations yield 0.5 mg of intact PASK enzyme judged to be greater than 95% pure by visual inspection of Coomassie-stained SDS-PAGE gels.

B1: human PASK (PAS-kinase), wild type, SEQ ID NO:2 (Homo sapiens) (protein)
chain: MEDGGLTAFEEDQRCLSQSLPLPVSAEGPAAQTTAEPSRSFSSAHRHLSRRNGLSRLCQSRTALSEDRWSSYCLSSLAAQNICTSKLHCPAAPEHTDPSEPRGSVSCCSLLRGLSSGWSSPLLPAPVCNPNKAIFTVDAKTTEILVANDKACGLLGYSSQDLIGQKLTQFFLRSDSDVVEALSEEHMEADGHAAVVFGTVVDIISRSGEKIPVSVWMKRMRQERRLCCVVVLEPVERVSTWVAFQSDGTVTSCDSLFAHLHGYVSGEDVAGQHITDLIPSVQLPPSGQHIPKNLKIQRSVGRARDGTTFPLSLKLKSQPSSEEATTGEAAPVSGYRASVWVFCTISGLITLLPDGTIHGINHSFALTLFGYGKTELLGKNITFLIPGFYSYMDLAYNSSLQLPDLASCLDVGNESGCGERTLDPWQGQDPAEGGQDPRINVVLAGGHVVPRDEIRKLMESQDIFTGTQTELIAGGQLLSCLSPQPAPGVDNVPEGSLPVHGEQALPKDQQITALGREEPVAIESPGQDLLGESRSEPVDVKPFASCEDSEAPVPAEDGGSDAGMCGLCQKAQLERMGVSGPSGSDLWAGAAVAKPQAKGQLAGGSLLMHCPCYGSEWGLWWRSQDLAPSPSGMAGLSFGTPTLDEPWLGVENDREELQTCLIKEQLSQLSLAGALDVPHAELVPTECQAVTAPVSSCDLGGRDLCGGCTGSSSACYALATDLPGGLEAVEAQEVDVNSFSWNLKELFFSDQTDQTSSNCSCATSELRETPSSLAVGSDPDVGSLQEQGSCVLDDRELLLLTGTCVDLGQGRRFRESCVGHDPTEPLEVCLVSSEHYAASDRESPGHVPSTLDAGPEDTCPSAEEPRLNVQVTSTPVIVMRGAAGLQREIQEGAYSGSCHHRDGLRLSIQFEVRRVELQGPTPLFCCWLVKDLLHSQRDSAARTRLFLASLPGSTHSTAAELTGPSLVEVLRARPWFEEPPKAVELEGLAACEGEYSQKYSTMSPLGSGAFGFVWTAVDKEKNKEVVVKFIKKEKVLEDCWIEDPKLGKVTLEIAILSRVEHANIIKVLDIFENQGFFQLVMEKHGSGLDLFAFIDRHPRLDEPLASYIFRQLVSAVGYLRLKDIIHRDIKDENIVIAEDFTIKLIDFGSAAYLERGKLFYTFCGTIEYCAPEVLMGNPYRGPELEMWSLGVTLYTLVFEENPFCELEETVEAAIHPPYLVSKELMSLVSGLLQPVPERRTTLEKLVTDPWVTQPVNLADYTWEEVCRVNKPESGVLSAASLEMGNRSLSDVAQAQELCGGPVPGEAPNGQGCLHPGDPRLLTS
Km: 2500 µM
